From US20250196025A1

B1: Protein L variant pAM251 (domain B2-2; H10, H45, Y60) (protein)
chain: PKEEVTIKAHLIYADGKTQTAEFKGTFEEAAAEAYRYADALKKDHGEYTVDVADKGYTLYIKFAGKEKTPEE
B2: Protein L variant pAM238 (domain B3-1; H10, H45, Q60) (protein)
chain: PKEEVTIKAHLIYADGKTQTAEFKGTFEEATAEAYRYADLLAKEHGKYTVDVADKGYTLQIKFAGKEKTPEE
B3: Protein L variant pAM237 (domain B2-1; H10, H45, Q60) (protein)
chain: PKEEVTIKAHLIYADGKTQTAEFKGTFEEAAAEAYRYADALKKDHGEYTVDVADKGYTLQIKFAGKEKTPEE
B4: Protein L variant pAM252 (domain B3-2; H10, H45, Y60) (protein)
chain: PKEEVTIKAHLIYADGKTQTAEFKGTFEEATAEAYRYADLLAKEHGKYTVDVADKGYTLYIKFAGKEKTPEE
B5: Protein L variant pAM253 (domain B4-2; H10, H45, Y60) (protein)
chain: PKEEVTIKAHLIYADGKTQTAEFKGTFAEATAEAYRYADLLAKEHGKYTADLEDGGYTIYIRFAGKKVDEKPEE
B6: Protein L variant pAM239 (domain B4-1; H10, H45, Q60) (protein)
chain: PKEEVTIKAHLIYADGKTQTAEFKGTFAEATAEAYRYADLLAKEHGKYTADLEDGGYTIQIRFAGKKVDEKPEE
B7: Protein L variant pAM247 (domain C4-1; H10, H45, Q60) (protein)
chain: PKEEVTIKVHLIFADGKTQTAEFKGTFEEATAEAYRYADLLAKVHGEYTADLEDGGYTIQIKFAGKEQPGENPG
B8: Protein L variant pAM261 (domain C4-2; H10, H45, Y60) (protein)
chain: PKEEVTIKVHLIFADGKTQTAEFKGTFEEATAEAYRYADLLAKVHGEYTADLEDGGYTIYIKFAGKEQPGENPG
B9: Protein L variant pAM244 (domain C2b-1; H10, H45, Q60) (protein)
chain: PKEEVTIKVHLIFADGKTQTAEFKGTFEEATAKAYAYADLLAKEHGEYTADLEDGGYTIQIKFAGKETPETPEE
B10: Protein L variant pAM246 (domain C3b-1; H10, H45, Q60) (protein)
chain: PKEEVTIKVHLIFADGKIQTAEFKGTFEEATAKAYAYADLLAKEHGEYTADLEDGGYTIQIKFAGKETPETPEE
B11: Protein L variant pAM243 (domain C2-1; H10, H45, Q60) (protein)
chain: PKEEVTIKVHLIFADGKTQTAEFKGTFEEATAKAYAYADLLAKEHGEYTADLEDGGNTIQIKFAGKETPETPEE
B12: Protein L variant pAM260 (domain C3b-2; H10, H45, Y60) (protein)
chain: PKEEVTIKVHLIFADGKIQTAEFKGTFEEATAKAYAYADLLAKEHGEYTADLEDGGYTIYIKFAGKETPETPEE
B13: Protein L variant pAM258 (domain C2b-2; H10, H45, Y60) (protein)
chain: PKEEVTIKVHLIFADGKTQTAEFKGTFEEATAKAYAYADLLAKEHGEYTADLEDGGYTIYIKFAGKETPETPEE
B14: Protein L variant pAM259 (domain C3-2; H10, H45, Y60) (protein)
chain: PKEEVTIKVHLIFADGKIQTAEFKGTFEEATAKAYAYANLLAKEHGEYTADLEDGGNTIYIKFAGKETPETPEE
B15: Protein L variant pAM245 (domain C3-1; H10, H45, Q60) (protein)
chain: PKEEVTIKVHLIFADGKIQTAEFKGTFEEATAKAYAYANLLAKEHGEYTADLEDGGNTIQIKFAGKETPETPEE
B16: Protein L variant pAM257 (domain C2-2; H10, H45, Y60) (protein)
chain: PKEEVTIKVHLIFADGKTQTAEFKGTFEEATAKAYAYADLLAKEHGEYTADLEDGGNTIYIKFAGKETPETPEE
B17: Protein L variant pAM249 (domain B1-2; H10, H45, Y60) (protein)
chain: SEEEVTIKAHLIFANGSTQTAEFKGTFEKATSEAYAYADTLKKDHGEYTVDVADKGYTLYIKFAGKEKTPEE
B18: Protein L variant pAM235 (domain B1-1; H10, H45, Q60) (protein)
chain: SEEEVTIKAHLIFANGSTQTAEFKGTFEKATSEAYAYADTLKKDHGEYTVDVADKGYTLQIKFAGKEKTPEE
B19: Protein L variant pAM262 (domain D1-2; H10, H45, Y60) (protein)
chain: PKEEVTIKAHLIFADGKTQTAEFKGTFEEATAEAYRYADLLAKVHGEYTADLEDGGYTIYIKFAGKEQPGEN
B20: Protein L variant pAM248 (domain D1-1; H10, H45, Q60) (protein)
chain: PKEEVTIKAHLIFADGKTQTAEFKGTFEEATAEAYRYADLLAKVHGEYTADLEDGGYTIQIKFAGKEQPGEN

Key:
[1] = molecular target: IgG (Gammanorm); assay: SPR (Biacore), variant amine-coupled to CM5 chip, Gammanorm as analyte, 1:1 kinetic fit
[2] = molecular target: IgG (Gammanorm); assay: SPR (Biacore), variant amine-coupled to CM5 chip, Gammanorm as analyte, steady state affinity fit

Binder | Kd [1] [nM] | Kd [2] [nM]
B1 | 20 | 55
B2 | 25 | 82
B3 | 27 | 72
B4 | 16 | 69
B5 | 14 | 54
B6 | 17 | 60
B7 | 9 | 38
B8 | 12 | 43
B9 | 18 | 50
B10 | 17 | 49
B11 | 39 | 83
B12 | 18 | 51
B13 | 17 | 45
B14 | 55 | 120
B15 | 65 | 134
B16 | 47 | 98
B17 | 29 | 79
B18 | 42 | 101
B19 | 11 | 48
B20 | 16 | 56
